Experiments:
[1] = biological target: Alexa Fluor 647 maleimide-labeled LukS-K281C-Y113H (Staphylococcus aureus); experiment: single-molecule step-wise photobleaching
[2] = biological target: human C5a receptor with C-terminal mGFP, on HEK cells (human) (UniProt P21730); experiment: single-molecule step-wise photobleaching
Chain of UniProt P21730 (P21730 whole entry): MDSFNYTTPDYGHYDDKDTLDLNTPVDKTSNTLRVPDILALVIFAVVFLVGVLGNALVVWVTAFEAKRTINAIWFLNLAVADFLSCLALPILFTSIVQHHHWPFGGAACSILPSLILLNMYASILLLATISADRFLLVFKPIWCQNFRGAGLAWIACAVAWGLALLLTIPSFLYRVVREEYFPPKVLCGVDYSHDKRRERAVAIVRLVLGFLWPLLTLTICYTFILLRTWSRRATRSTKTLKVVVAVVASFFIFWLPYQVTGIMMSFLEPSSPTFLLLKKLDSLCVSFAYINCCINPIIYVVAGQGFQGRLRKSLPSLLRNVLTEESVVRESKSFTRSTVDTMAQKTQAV

“Alexa Fluor 647 maleimide-labeled LukS-K281C-Y113H (natural protein)” gave a stoichiometry N [1] of 3.9 molecules and a stoichiometry N (hC5aR molecules per LukS molecule) [2] of 4 to 5.

— paper doi:10.1101/127514
